Results reported in IntAct's records for PubMed 8137824.

B1: Mating-type protein ALPHA2 (Saccharomyces cerevisiae), P0CY08 (parent)
chain: MNKIPIKDLLNPQITDEFKSSILDINKKLFSICCNLPKLPESVTTEEEVELRDILGFLSRANKNRKISDEEKKLLQTTSQLTTTITVLLKEMRSIENDRSNYQLTQKNKSADGLVFNVVTQDMINKSTKPYRGHRFTKENVRILESWFAKNIENPYLDTKGLENLMKNTSLSRIQIKNWVSNRRRKEKTITIAPELADLLSGEPLAKKKE
partner: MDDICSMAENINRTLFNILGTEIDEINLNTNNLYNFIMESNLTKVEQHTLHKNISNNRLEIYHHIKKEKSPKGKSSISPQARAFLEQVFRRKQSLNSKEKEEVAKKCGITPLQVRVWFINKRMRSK

Variants of: B1
Conditions: with mata1_yeasx MATA1, P0CY10

effect of a mutation on the interaction	Variant
disrupting interaction strength	I67A;L74A;L81A;L88A
